Assay results taken from PMC11741606.

Columns and labels:
[1] = molecular target: dog aminopeptidase N ectodomain fused with the Fc domain of human IgG (dog (Canis lupus familiaris)) (UniProt P79143); experiment: SPR; hFc-tagged APN from concentrated supernatant captured on a protein A sensor chip (>1000 RU); serially diluted RBD flowed over in PBST; BIAcore 8K, single-cycle mode; 1:1 Langmuir model; mean ± SD of three experiments
[2] = molecular target: pig aminopeptidase N ectodomain fused with the Fc domain of human IgG (pig (Sus scrofa)) (UniProt P15145); experiment: as above
pig aminopeptidase N ectodomain fused with the Fc domain of human IgG (pig (Sus scrofa)), sequence (P15145 33-963): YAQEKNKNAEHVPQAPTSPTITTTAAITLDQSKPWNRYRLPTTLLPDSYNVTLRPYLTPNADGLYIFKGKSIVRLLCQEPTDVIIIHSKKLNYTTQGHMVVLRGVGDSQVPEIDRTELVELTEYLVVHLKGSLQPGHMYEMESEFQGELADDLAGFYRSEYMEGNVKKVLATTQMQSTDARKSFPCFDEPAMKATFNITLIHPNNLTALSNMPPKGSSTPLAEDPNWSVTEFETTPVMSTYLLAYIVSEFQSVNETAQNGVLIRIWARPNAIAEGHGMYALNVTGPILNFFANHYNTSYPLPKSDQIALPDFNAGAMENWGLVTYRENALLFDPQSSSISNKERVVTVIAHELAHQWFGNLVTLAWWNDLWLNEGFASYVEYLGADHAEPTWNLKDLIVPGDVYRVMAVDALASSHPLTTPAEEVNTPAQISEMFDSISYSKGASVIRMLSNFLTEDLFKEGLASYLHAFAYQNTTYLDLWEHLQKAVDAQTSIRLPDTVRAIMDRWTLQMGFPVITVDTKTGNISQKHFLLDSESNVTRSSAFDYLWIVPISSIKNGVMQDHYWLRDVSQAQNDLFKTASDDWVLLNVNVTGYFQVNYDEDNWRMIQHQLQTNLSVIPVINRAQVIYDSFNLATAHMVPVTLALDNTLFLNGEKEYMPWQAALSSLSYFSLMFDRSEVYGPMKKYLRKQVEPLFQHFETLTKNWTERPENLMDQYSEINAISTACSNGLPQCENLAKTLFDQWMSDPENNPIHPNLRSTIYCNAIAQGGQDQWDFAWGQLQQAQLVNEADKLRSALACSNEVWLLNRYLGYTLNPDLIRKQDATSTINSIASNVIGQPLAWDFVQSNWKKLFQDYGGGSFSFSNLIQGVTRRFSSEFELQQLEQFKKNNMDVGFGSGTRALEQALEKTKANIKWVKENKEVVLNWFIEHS

[3] = molecular target: PDCoV RBD (receptor-binding domain of the porcine deltacoronavirus spike protein); experiment: SPR
[4] = molecular target: chicken aminopeptidase N ectodomain fused with the Fc domain of human IgG (chicken (Gallus gallus)) (UniProt O57579); experiment: SPR; hFc-tagged APN from concentrated supernatant captured on a protein A sensor chip (>1000 RU); serially diluted RBD flowed over in PBST; BIAcore 8K, single-cycle mode; 1:1 Langmuir model; mean ± SD of three experiments
chicken aminopeptidase N ectodomain fused with the Fc domain of human IgG (chicken (Gallus gallus)), sequence (O57579 32-972): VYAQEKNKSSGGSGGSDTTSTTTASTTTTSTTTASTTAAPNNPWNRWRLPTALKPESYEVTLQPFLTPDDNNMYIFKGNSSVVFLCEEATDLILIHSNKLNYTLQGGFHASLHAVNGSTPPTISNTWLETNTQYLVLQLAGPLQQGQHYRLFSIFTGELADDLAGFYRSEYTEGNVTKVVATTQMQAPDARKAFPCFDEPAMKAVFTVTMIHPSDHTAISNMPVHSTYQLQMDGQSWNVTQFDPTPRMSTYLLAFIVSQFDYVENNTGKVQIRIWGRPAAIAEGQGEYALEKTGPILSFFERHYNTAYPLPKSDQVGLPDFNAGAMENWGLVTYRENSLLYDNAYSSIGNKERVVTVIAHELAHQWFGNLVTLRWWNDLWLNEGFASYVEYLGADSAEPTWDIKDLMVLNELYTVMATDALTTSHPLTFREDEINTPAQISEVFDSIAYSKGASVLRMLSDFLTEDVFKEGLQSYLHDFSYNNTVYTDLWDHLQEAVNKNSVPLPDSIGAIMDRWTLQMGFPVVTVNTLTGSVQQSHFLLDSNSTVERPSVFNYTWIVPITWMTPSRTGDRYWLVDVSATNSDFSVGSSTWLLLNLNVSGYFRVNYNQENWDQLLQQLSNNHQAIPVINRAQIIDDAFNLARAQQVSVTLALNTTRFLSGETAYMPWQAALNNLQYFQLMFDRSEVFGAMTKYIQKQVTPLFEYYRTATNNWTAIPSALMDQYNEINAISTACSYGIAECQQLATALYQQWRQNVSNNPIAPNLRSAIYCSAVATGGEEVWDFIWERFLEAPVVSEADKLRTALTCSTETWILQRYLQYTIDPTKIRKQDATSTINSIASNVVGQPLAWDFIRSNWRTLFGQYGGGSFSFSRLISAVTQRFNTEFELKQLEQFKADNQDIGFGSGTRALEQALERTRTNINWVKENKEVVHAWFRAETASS

Substance	Kd [3] [nM]	further results
TGEV RBD (receptor-binding domain of the transmissible gastroenteritis coronavirus spike protein) (domain or fragment)		Kd [1]: 20 nM; Kd [2]: 2770 nM
dog aminopeptidase N ectodomain fused with the Fc domain of human IgG (from UniProt P79143) Y375F	350	
dog aminopeptidase N ectodomain fused with the Fc domain of human IgG (from UniProt P79143) R325N	10500	
PDCoV RBD (receptor-binding domain of the porcine deltacoronavirus spike protein) (domain or fragment)		Kd [1]: 840 nM; Kd [4]: 3030 nM; Kd [2]: 12800 nM
dog aminopeptidase N ectodomain fused with the Fc domain of human IgG (from UniProt P79143) E757D	423	
dog aminopeptidase N ectodomain fused with the Fc domain of human IgG (from UniProt P79143) H751R	1450	
dog aminopeptidase N ectodomain fused with the Fc domain of human IgG (from UniProt P79143) Q753E	783	
dog aminopeptidase N ectodomain fused with the Fc domain of human IgG (from UniProt P79143) Y797H	1220	
dog aminopeptidase N ectodomain fused with the Fc domain of human IgG (from UniProt P79143) T754N	4060	
dog aminopeptidase N ectodomain fused with the Fc domain of human IgG (from UniProt P79143) D750E	148	
